Source: the supplement of paper PMC10724198
± gives the standard deviation of the averaged measurements.

system: Saccharomyces cerevisiae; assay: protein stability index of tFT-peptide fusion (C-terminal peptide) (PSI (0-1 scale)); higher = more stable (slower turnover); conditions: genetic background: wild type; temperature: 30 C
Procedure: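 Multiplexed protein stability (MPS) profiling in S. cerevisiae. Random 12-aa peptides (tFT-X12 library) are fused to the C-terminus of a sfGFP-mCherry tandem fluorescent timer, after mCherry and a GGGS linker. Cells are FACS-sorted into 8 mCherry/sfGFP bins and deep-sequenced. The protein stability index (PSI) is the read-weighted bin average, scaled from 0 (unstable) to 1 (stable). Only peptides with >10 reads are reported; cells were grown at 30 °C in SC-His with glucose.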
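Note: PSI is a weighted mean of sequencing reads over stability bins, variants kept only with over 10 reads, mCherry proximal and sfGFP distal, peptide attached via GGGS linker.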

Sequence	protein stability index
ARLDVFTMYKDR	0.748 ± 0.056
ARLRSTPVVLPT	0.668 ± 0.024
ARLSHLQSLRFI	0.5476 ± 0.0012
ARLSNLPPSPPR	0.678 ± 0.032
ARNGVCTERSVL	0.691 ± 0.028
ARNNVRKTEQQC	0.717 ± 0.11
ARPPPPPPSVDP	0.719 ± 0.011
ARPPSPRPPPAP	0.675 ± 0.062
ARPRSGIRGSGV	0.6848 ± 0.0048
ARRIEGADAERG	0.668 ± 0.048
ARRVILRANGRI	0.668 ± 0.035
ARSALFRCGSIA	0.678 ± 0.02
ARTILGSFILHP	0.662 ± 0.049
ARYTGPTRIRAE	0.672 ± 0.1
ASAWHGLVFPPF	0.779 ± 0.01
ASCQRCGSVLDL	0.697 ± 0.014
ASDMHRTNKPRE	0.671 ± 0.085
ASFWLPSNLLPI	0.7322 ± 0.0013
ASGGWGVGCPGV	0.716 ± 0.041
ASGKRSGPNPCR	0.72 ± 0.022
ASGWWGGAVGLR	0.68375 ± 0.00064
ASKKIDIEKRGT	0.705 ± 0.14
ASLPDHYPGPKI	0.759 ± 0.27
ASPRLPSPLSLT	0.718 ± 0.12
ASRRASLSLRGP	0.73 ± 0.022

Sequence	protein stability index
ASRRSRLPWLLL	0.629 ± 0.0083
ASRSRFMREQMV	0.567 ± 0.027
ASRWGYSATTVG	0.697 ± 0.026
ASYVFVVEGGGG	0.609 ± 0.018
ATDAWNKNKESS	0.542 ± 0.04
ATHPGCATPDAH	0.704 ± 0.015
ATPAPRGEVLVP	0.6369 ± 0.0034
ATPGALVSHPTL	0.729 ± 0.049
ATPPHLLPAPLA	0.656 ± 0.011
ATSYRPPHFAIP	0.693 ± 0.011
ATVARNTDTSSP	0.679 ± 0.017
ATVYFCKVCGGR	0.687 ± 0.019
AVDPGASFPVSV	0.698 ± 0.0086
AVGFFAASVPGF	0.7293 ± 0.0069
AVGMGCLSFFVV	0.553 ± 0.056
AVGMVLEYFTLG	0.671 ± 0.029
AVRCEEKGLLLS	0.674 ± 0.017
AVRVSRFSCGGW	0.717 ± 0.038
AVSCTAWVTALG	0.522 ± 0.012
AVSSGPGSCSNP	0.668 ± 0.013
AVVRGRADCVMV	0.656 ± 0.017
AVVTVVDRVVRE	0.594 ± 0.032
AVVYRGGRGGIS	0.775 ± 0.047
AVWLGVGGRFVG	0.781 ± 0.053
AVWLVVRGVRGR	0.679 ± 0.034

Sequence	protein stability index
AVYWRRIRRGRA	0.6714 ± 0.0018
AWDGVESGRGLE	0.67797 ± 0.00016
AWFCLGGRRGMV	0.685 ± 0.023
AWGFHDAFGLGC	0.605 ± 0.032
AWGGGSVVFWAV	0.692 ± 0.055
AWGGRVGWPKRR	0.734 ± 0.052
AWGPGCVVRGRE	0.7151 ± 0.0012
AWVCRLDGPVGG	0.634 ± 0.04
AWVLVVLGSSHR	0.586 ± 0.05
AWVVVGEGKGWR	0.717 ± 0.035
AWWWGCSSIGYW	0.787 ± 0.085
AYCGGSNKCTTE	0.732 ± 0.026
AYCGLEGFLGLG	0.688 ± 0.051
AYLGFYLLPYSS	0.717 ± 0.13
AYRKQGRGERKG	0.65 ± 0.011
AYRLWQTESKFD	0.699 ± 0.057
CAGSRIYCVSLS	0.641 ± 0.062
CASGKVCVRFCW	0.683 ± 0.033
CAVPTCSRVPIV	0.601 ± 0.078
CCAVLSSMSSFD	0.668 ± 0.053
CCFFPSLRSPSF	0.726 ± 0.011
CCLSISSSLLDL	0.675 ± 0.13
CCLSVSSHLPHS	0.7096 ± 0.00068
CCPHMLLVLTNI	0.509 ± 0.011
CCRDLWVWLVKW	0.619 ± 0.071

Sequence	protein stability index
CCSLIPRAPSGR	0.687 ± 0.051
CDWQMMKVQERS	0.698 ± 0.021
CECRCECGIGDK	0.632 ± 0.096
CEYRRLVISVFD	0.547 ± 0.028
CFAPRAPIRRFF	0.733 ± 0.032
CFCSLLSPSLFL	0.751 ± 0.091
CFEGPSSRRYFV	0.699 ± 0.083
CFGSRMGVVGFC	0.726 ± 0.065
CFGVSVYIGLGV	0.588 ± 0.011
CFGYRGAPFCGQ	0.669 ± 0.063
CFKPLRLEPGCC	0.665 ± 0.094
CFLCLAYGFFSF	0.571 ± 0.03
CFLVLFAHPFVL	0.555 ± 0.007
CFPLSPSCIFLR	0.464 ± 0.077
CFSRCLSLLSSS	0.636 ± 0.021
CGAALCSWEVVV	0.627 ± 0.018
CGCVAVNSFPVL	0.69 ± 0.011
CGGGGVVGAGWG	0.728 ± 0.061
CGGSARAGVVFL	0.699 ± 0.066
CGGWTRRSGDMV	0.678 ± 0.042
CGHAGQTPRTSR	0.718 ± 0.065
CGISTRYHNRES	0.696 ± 0.023
CGLLEGGRCRKE	0.7922 ± 0.0071
CGLVGVALSEGV	0.65 ± 0.086
CGRACWTGEDDV	0.68 ± 0.037

Sequence	protein stability index
CGRGCTRGVNLG	0.689 ± 0.069
CGSWAGRAWPGR	0.755 ± 0.014
CGVGWSWTWSGW	0.698 ± 0.078
CGVYPQLSGGFG	0.687 ± 0.018
CGWTSPSLVPTC	0.791 ± 0.045
CGYAAGGELLQD	0.705 ± 0.012
CHGCSGFSYAPS	0.669 ± 0.039
CIALLTPPCIIF	0.72 ± 0.065
CIDCGRKDIARL	0.785 ± 0.066
CIPHVVPYSTGK	0.697 ± 0.014
CITLLDILFRPS	0.684 ± 0.019
CKKRSRCGNTIM	0.755 ± 0.15
CKMGNQNIRLYV	0.599 ± 0.033
CKPAGEGPTASM	0.678 ± 0.037
CKVRSYDDFVLV	0.6231 ± 0.002
CLAGLGPADFGM	0.674 ± 0.057
CLATVFWHHVKF	0.63 ± 0.058
CLAVPFSFRLVW	0.613 ± 0.041
CLHSKPSPESRT	0.687 ± 0.041
CLISDLRFVNKR	0.69 ± 0.056
CLLIRAQRNALW	0.64 ± 0.036
CLPCSGWLSWPH	0.664 ± 0.0069
CLPLSPPVPHLR	0.738 ± 0.12
CLPPSSIVPFIS	0.59 ± 0.024
CLREYGGRGGWE	0.706 ± 0.028

Sequence	protein stability index
CLRGFWSQFMRF	0.678 ± 0.032
CLRKKYSNTLLM	0.647 ± 0.028
CLRTVGIAQSSG	0.7019 ± 0.00094
CLSAPFRSLLFL	0.585 ± 0.051
CLSATTFSYVFA	0.576 ± 0.0061
CLTRFFQPYGSL	0.667 ± 0.059
CLTYPSFSLSSS	0.635 ± 0.063
CMRVGGWFLFSL	0.661 ± 0.051
CNFGLHSCALLY	0.723 ± 0.033
CNVGAIVGLVWV	0.6002 ± 0.0019
CPGNGVFYSGRG	0.679 ± 0.014
CPLEYSEVVLVD	0.6268 ± 0.0022
CPLSPLPSSAAP	0.681 ± 0.042
CPPGFPRPSSPH	0.689 ± 0.028
CPPTPSPSTLPT	0.663 ± 0.016
CPRPHVLPLAYF	0.646 ± 0.014
CPRSWWELLAID	0.739 ± 0.045
CPSIVCSPTDPM	0.679 ± 0.061
CPSRPPALPPPE	0.66835 ± 0.00049
CPTLTCPRLPSP	0.684 ± 0.11
CPVSWRPLCTVS	0.6177 ± 0.0054
